The results in this text go back to the nanobody polyreactivity screen of Harvey et al. (2022).

The series can be described thus: yeast display, Sf9 membrane polyspecificity reagent, FACS + sequencing; frameworks hold sequencing errors. Summed up: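 Galactose induction of a Saccharomyces cerevisiae BJ5465 synthetic nanobody display library ran 36–48 hours. The cells were then stained for 1 hour at 4 °C with 10% biotinylated, detergent-solubilized Sf9 membrane reagent, pulled down on streptavidin microbeads and FACS-sorted into low and high (top ~1%) gates on expression and reagent-binding fluorescence. Labels for polyreactivity follow the gate of origin.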
As to “HVQLVESGGGLVQAGGSLRLSCAASGGISIDNVMGWYRQATGKERELVAAISKSGGRTFYADSVKGRFTISRDNAKNTVYLQMNSLKPEDTAVYYCAKLYISKPYWYEHEYWGQGTQVTVSS”, the “polyreactivity (PSR sort gate)” value was “high polyreactivity”.
Regarding “HVQLVESGGGLVQAGGSLRLSCAASGLTFAQYAMGWYRQAPGNERALVAAITGSGGSTYYADSVKGRFTISRDNAKNTVYLQLNSLKPEDTAVYYCNKLFYRWRIVDKYYYWGQGTQVTVSS”, the “polyreactivity (PSR sort gate)” value is listed as “high polyreactivity”.
As for “HVQLVESGGGLVQAGGSLRLSCAASGNIFVRYAMGWYRPAPGKERELVAAISSSGGRTYYADSVKGRFTISRDNAKNTVYLQMNSLKPEDTAVYYCATGRPSHNRYDYWGQGTQVTVSS”, the entry is “high polyreactivity”; as for “HVQLVESGGGLVQAGGSLRLSCAASGRIFGRNAMGWYRQAPGKERELVAAISSGGSTYYADSVKGRLTISRDNAKNTVYLQMNSLKPEDTAVYYFAVRGSYYNGGRAFESWGQGTQVTVSS”, “high polyreactivity”; as for “HVQLVESGGGLVQAGGSLRLSCAASGRIFPSNTMGWYRQAPGKERELVAAITRGDRTNYADSVKGRFTISRDNAKNTVYLQMNSLKPVDTAVYYCNARWGLPFGSGYYYWGQGTQVTVSS”, “low polyreactivity”.
Consider “HVQLVESGGGLVQAGGSLRLSCAASGRIFVDYVMGWYRQAPGKERELVARITWIGGNTYYADSVKGRFTISRDNAKNTVYFQMNCLKPEDTAVYYSNAGLTLLSRRHEGWYGDDYWGPGTQVTVSS”, for which the “polyreactivity (PSR sort gate)” value is given as “low polyreactivity”.
Under “HVQLVESGGGLVQAGGSLRLSCAASGRIFVVYTMGWYRQAPGKERELVASIRGSGDSTNYADSVKGRFTLSRDNAKNTVYLQMNRLKPEDTAVYYCAADLPWSRRYSYRYGYWGQGTQVTVSS” stands “low polyreactivity”; under “HVQLVESGGGLVQAGGSLRLSCAASGRISIRNAMGWYRQAPGKERELGAAISRSGGSTYYADSVKGRFTISRDNAKNTVYIQMNSLKPEDTAVYYCAASFWSSGQWYDYWGQGTQVTVSS”, “high polyreactivity”.
Under “HVQLVESGGGLVQAGGSLRLSCAASGRSLSDYAMGWYRQAPGKERELVATITSGDSTNYADSVKGRFTISRDNEKNTVYLQMNSLKPEDTEVYYCNADRFADYDYWGQGTQVTVSS” stands “low polyreactivity”.
As for “HVQLVESGGGLVQAGGSLRLSCAASGRTFLVYAMGWDRQAPGKERELVADITRSGGRTYYADSVKGRITISRDNAKNTVYLQINSLKPEDTAVYYCAARPYFVGPIEYDYWGQGTQVTVSS”, the entry is “high polyreactivity”.
As for “HVQLVESGGGLVQAGGSLRLSCAASGRTFYFNTMGWYRQAPGKEMELVASISYGSNTNYADSVKGRFTISRDNAKNTVYLQMNSLKPEDTAVYFCAVRWVYRTSSWGARYGRYDYWGQGTQVTVSS”, the “polyreactivity (PSR sort gate)” value is listed as “high polyreactivity”.
With “HVQLVESGGGLVQAGGSLRLSCAASGRTLYNNAMGWYRQAPGKERELVAAISSRGGSTRYADSVKGRFTISRDNAKNTVYLQMNSLKPEDTAVYSGAKRSINRDGDYWGQGTQVTVSS”, the “polyreactivity (PSR sort gate)” value is “high polyreactivity”.
As for “HVQLVESGGGLVQAGGSLRLSCAASGSIFGHYAMGWYRQATGKERELVAAISSGGSTNYADSVKGRFTISRDNAKNTVYLQMNSLIPEDTAVYYCAPTSWWPPGYDYWGQGTQVTVSS”, the “polyreactivity (PSR sort gate)” value was “high polyreactivity”.
As to “HVQLVESGGGLVQAGGSLRLSCAASGSIFGNYVMGWYRQAPGKERELVAAISWSGGTNYADSVKGRFTISRDNAKNTVYLQMKSLKPEDTAVYYCAALSVWSYYTYYYWGQGTQVTVSS”, the “polyreactivity (PSR sort gate)” value was “high polyreactivity”.
Consider “HVQLVESGGGLVQAGGSLRLSCAASGSIFNSNGMGWYRQATGKERELVAAITGGGSTNYADSVKGRFTISRDNAKNTVYLQMNSLKPEDTAVYYCAARPLRTDWAYYYWGQGTQVTVSS”, for which the “polyreactivity (PSR sort gate)” value is given as “low polyreactivity”.
Under “HVQLVESGGGLVQAGGSLRLSCAASGSIFPRYSMGRYRQAPGKEMELVAAITSGGSTYYADSVKGRFTISRDNAKNTVYLQMNSLKPEDTAVYYCAATIYRPKGGTYGWYGYDYWGQGTQVTVSS” stands “high polyreactivity”.
As for “HVQLVESGGGLVQAGGSLRLSCAASGSIFSGNAMGWYRQAPGKERELVAAISYSDGSTYYADSVKGRFTISRDNAKNTVYLQMNSLKPEDTAVYYCAADGYPYTYDYWGQGTQVTVST”, the “polyreactivity (PSR sort gate)” value was “low polyreactivity”.
For “HVQLVESGGGLVQAGGSLRLSCAASGSIYGGNTMGWYRQAPGKERELVAAISRSGGSTYYADSVKGRFTISRDNAKNTVYLQMNSLKREDTAVYYCKRKQAGHGQGYDYWGQGTQVTVSS”, the “polyreactivity (PSR sort gate)” value is on record as “high polyreactivity”.
As to “HVQLVESGGGLVQAGGSLRLSCAASGSTFAAYAMGWYRQAPGKERELVAAITKRGGTTYYADSVKGRVTISRDHAKNSVYLQMNSLKPEDTAVYYCAKTRYYSALLHYDYDTWGQGTQVTVST”, the “polyreactivity (PSR sort gate)” value is listed as “high polyreactivity”.
For the sequence “HVQLVESGGGLVQAGGSLRLSCAASGSTFDVYAMGWYRQAPGKERELVAAISRSGGSTYYADSVKGRFTISRDNAKNTVYLQMNSLKPEDTAVYYCNARLARWGSYEYNYWGQGTQVTVSS”, the “polyreactivity (PSR sort gate)” value was “low polyreactivity”.
As for “HVQLVESGGGLVQAGGSLRLSCAASGSTFKRNTMGWYRQAPGKERELVAAISRSGGSTYYADSVKGRFTISRDNAKNTVYLQMNSLKPEDTAVYYCNAYVSSYVGSRSYGLSPYDYWGQGTQVTVSS”, the entry is “high polyreactivity”; as for “HVQLVESGGGLVQAGGSLRLSCAASGSTFKRYAMGGDRQAPGKEREFVAGISWRGGSTYYADSVKGRFTISRDNAKNTVYLQMNSLKPEDTAVYFCAARSFSNIGYHGYGYWGQGTQVTVSS”, “high polyreactivity”.
Consider “HVQLVESGGGLVQAGGSLRLSCAASVTFSFYAMGWYTQSPGKERELVAAISSIGDSTYYADSVKGRFTISRDNAKNTVYLQMNSLKPEETAVYYYGVIAVDAYDYYTYDYWRQGTQVTVSS”, for which the “polyreactivity (PSR sort gate)” value is “high polyreactivity”.
“HVQLVESGGGLVQAGGSLRLTCAASGFSYGYYAMGWYRQAPGKEWELVATISSGDNTYYADSVKGRFTSSRDNAKNTVYLQMNSLKPEDTAVYYCAARYPHYFVRGGYWGQGTQVTVSS”: the “polyreactivity (PSR sort gate)” value is recorded as “high polyreactivity”.
“HVQLVESGGGLVQAGGSLRLTCAASGLTFSSYAMGWYRQAPGKERELVADITYRGGSTYYADSVKGRFTISRDNEKNTVYLQMNSLKPEDTAVYYCAARKKYRFDYWGQGTQVTVSS”: the “polyreactivity (PSR sort gate)” value is recorded as “high polyreactivity”.
Under “HVQLVESGGGLVQARGSLRLSCAASGRTSWYYAMGWYRQAPGKEKELVAAITASGGSTYADSVKGRFTISRDNAKNTVYLEMNSLKPEDTAVYYCAAERPYSRVGYYYWGQGTQVTVSS” stands “high polyreactivity”; under “HVQLVESGVGLVQAAGSLRLSCAASGLIFRWYAMGWYRQAPVKERELFAAISRGGSTNYADSVKGRFTISRDNAKNTVYLQMNSLKPEDTAVYYCATVYSVRYGGRYYYAFGLYDYWGQGTQVTVSS”, “high polyreactivity”.
For the sequence “HVQLVESVGGLVQAGGSLRLRCAASGLTFRCNGMGWYRQEPGKETELVAAISSSGGSTYYADSVKGRFTISRDNAKNTVYLQLNSLKPEDTGVYFCARLVFYSQGVREMDYWGQGTQVTGSS”, the “polyreactivity (PSR sort gate)” value is recorded as “high polyreactivity”.
Under “IIQAGGSLRLSCAASGRTFSGYAMGWYRPAPGKERELIADITSGGSTYYADSVKGRFTISRDNAKNTVYLQMNSLKPEDTAVYYCNKVYPVVLYEPQYDYWGQGTQVTVSS” stands “low polyreactivity”; under “KDQLVESGGGLVQAGGSLRLSGAASGRTFASNDMVWYRQAPGKERELVADINNGARTYYADSVKGRFTISRDNAKNTVYLQMNSLKPEDSAVYYCNARPWYWWECRYDYWGQGTQVTVSS”, “high polyreactivity”.
In the case of “KLQLVDSGGGLVQAGGSLRLSCAASGSTIRYYAMGWYRQAPGKERELVAAITISGGGTYADSVKGRFTISRDNAKNTVYLEMNSLKPEDTAVYYCAATYYGFLYRSIGDYWGQGTQVTVSS”, the “polyreactivity (PSR sort gate)” value is recorded as “low polyreactivity”.
As for “KVQLQESGGGLVQAGGSLRPSCAASGSITDGVPMGWDRQAPGEERELVATTVLGATTNYADSVKGRFTISRGNAKNTVYLLMNSLKPEETAVYYCAAPLRYDKGFSYWRQGTQVTVSS”, the entry is “low polyreactivity”.
In the case of “KVQLVESGGGIVQAGGSLRLSCAASGSTFVRNAMGWYRQAPGKERELVAGITFGGGSTYYADSVKGRFTISRDNAKNTVYLQMNSLKAEDTAVYFCAKRDYSPWPAAGYPYDYDYWGQGTQVTVSS”, the “polyreactivity (PSR sort gate)” value is “low polyreactivity”.
As for “KVQLVESGGGLVQAGGSLRISCAASGSNFGRYAMGWYRQAPGKERELVAAISARGGSTYYADSVKGRFTISRDNAKNTVYLQMNSLKPEDTAFYYCNVLVRYSDQSSDSWGQGTQVTVSS”, the entry is “high polyreactivity”; as for “KVQLVESGGGLVQAGGSLRLSCAASGINCYYYAMGWYRQAPGKERELVAVISSSGGRTYYADSVKGRFTISRDNSKNTVYLQMNSLKPEDTAVYYCAARGYGATYDYWGQGTQVTVSS”, “high polyreactivity”; as for “KVQLVESGGGLVQAGGSLRLSCAASGITLSYYAMGWYSQAPGKEMELVAAINRGGRTYYADSVTGRFTISRDNAKNTVYLQMNSLKPEDTAVYYCATAYASSQKYYYWGQGTQVTVSS”, “high polyreactivity”.
As for “KVQLVESGGGLVQAGGSLRLSCAASGRTFLRYAMGWYRQAPGKERELVAAISTSGGSTYYADSVKGRFTISRDNAKNTVYLQMNSLKPEDTAVYYCAATSTSYTYTHSYGYWGQGTQVTVSS”, the “polyreactivity (PSR sort gate)” value is “low polyreactivity”.
Under “KVQLVESGGGLVQAGGSLRLSCAASGSIFTHNAMGWYRQAPGKERELVAAISSGGSTNYADSVKGRFTISRDNAKNTVYLQMNSLKPEDTAVYYCAKSIDGWYWRRRRYDYWGQGTQVTVSS” stands “low polyreactivity”; under “KVQLVESGGGLVQAGGSLRLSCAASGSIIGGYAMGWYRQAPGKVRELVAAINRSGGRTYYADSVKGRFTFSRDNAKNTVYLQMNSLKPEDTAVYYCAADNFRGKYDYLGQGTQVTVSS”, “high polyreactivity”.
Under “KVQLVESGGGLVQAGGSLRLSCAASGSTFYYYAMGWNRQAPGKERELVAVITLSGGSTYYADSVKGRFTISRDNAKNTFYLQMNSLKPEDTAVFYCAAEHWEVWNSYYYEYDYWGQGTLVTVSS” stands “high polyreactivity”.
Regarding “KVQLVESGGGLVQAGGSLRVRCAASGFTFGVYAMGWYRQAPGKEREFVAVITWRGGRTYYADSVKGRFTISRDNAQNTVYLQMNSLKPEDTGVYYCNARPRIYLTLYYWGQGTQVSVSS”, the “polyreactivity (PSR sort gate)” value is recorded as “high polyreactivity”.
